Reference: patent US20190152966A1 (INSTITUTE OF CANCER RESEARCH ROYAL CANCER HOSPITAL, published 2019)

Target: T1, Epidermal Growth Factor Receptor (EGFR) (human, UniProt P00533 25-1210)
T1 construct: whole, on cells; also called HER1; EGF receptor
Assay: heading of the results section on rhMATN2 added to MDA-MB-231 cells

binding result: binds
B1: recombinant human MATN2 (rhMATN2) (ligand, UniProt O00339 24-956, looked up)
chain: RERSRGRSISRGRHARTHPQTALLESSCENKRADLVFIIDSSRSVNTHDYAKVKEFIVDILQFLDIGPDVTRVGLLQYGSTVKNEFSLKTFKRKSEVERAVKRMRHLSTGTMTGLAIQYALNIAFSEAEGARPLRENVPRVIMIVTDGRPQDSVAEVAAKARDTGILIFAIGVGQVDFNTLKSIGSEPHEDHVFLVANFSQIETLTSVFQKKLCTAHMCSTLEHNCAHFCINIPGSYVCRCKQGYILNSDQTTCRIQDLCAMEDHNCEQLCVNVPGSFVCQCYSGYALAEDGKRCVAVDYCASENHGCEHECVNADGSYLCQCHEGFALNPDKKTCTKIDYCASSNHGCQHECVNTDDSYSCHCLKGFTLNPDKKTCRRINYCALNKPGCEHECVNMEESYYCRCHRGYTLDPNGKTCSRVDHCAQQDHGCEQLCLNTEDSFVCQCSEGFLINEDLKTCSRVDYCLLSDHGCEYSCVNMDRSFACQCPEGHVLRSDGKTCAKLDSCALGDHGCEHSCVSSEDSFVCQCFEGYILREDGKTCRRKDVCQAIDHGCEHICVNSDDSYTCECLEGFRLAEDGKRCRRKDVCKSTHHGCEHICVNNGNSYICKCSEGFVLAEDGRRCKKCTEGPIDLVFVIDGSKSLGEENFEVVKQFVTGIIDSLTISPKAARVGLLQYSTQVHTEFTLRNFNSAKDMKKAVAHMKYMGKGSMTGLALKHMFERSFTQGEGARPLSTRVPRAAIVFTDGRAQDDVSEWASKAKANGITMYAVGVGKAIEEELQEIASEPTNKHLFYAEDFSTMDEISEKLKKGICEALEDSDGRQDSPAGELPKTVQQPTESEPVTINIQDLLSCSNFAVQHRYLFEEDNLLRSTQKLSHSTKPSGSPLEEKHDQCKCENLIMFQNLANEEVRKLTQRLEEMTQRMEALENRLRYR
notes: also called Matrilin2; human recombinant MATN2
